Legend:
[1] = fluorescent pI markers, cited from earlier work; for Pka: second pKa column
[2] = Inverse micelle (polymer 1) extraction of a myoglobin tryptic digest at pH 7.1, MALDI-MS; type: physicochemical; settings: myoglobin tryptic digest 1 μM, polymer 1 in toluene, K = Iorg/Iaq, [M+H]+, 3 replicates
Text: All of the peptides with pI values above 7.1 are extracted effectively, and with only one exception, peptides with pI values below 7.1 are not extracted effectively. Among the peptide fragments tested, the only exception is the peptide N140-G153 (m/z 1553), a peptide fragment that has a pI below 7.1 and still has K>1. […] One of two reasons could explain the observed results: First, because the pH of the solution is so close to the pI of this peptide, a significant fraction of the peptide is positively-charged at pH 7.1 and therefore extracted. Alternatively, the theoretically calculated pI value may be low.
(§1) A typical biphasic extraction procedure involves mixing 200 μL of a toluene solution of homopolymer 1 or 2 (1×10^−4 M) with 1 mL of an aqueous solution of peptide(s) that was buffered to pH ˜7.0 with 50 mM Tris/TrisHCl. The mixture is vortexed for 10 to 120 minutes and centrifuged at 12000 rpm for 30-40 minutes to break the resulting emulsion and separate the organic and aqueous layers. The top (organic) layer is then recovered and dried to obtain a solid residue. The residue is redissolved into 10 μL of THF and sonicated for 10 seconds to promote solubilization. Finally, 20 μL of an α-CHCA matrix solution (0.16 Min 60:40:0.3% THF:H2O:TFA) are added to the sample for a final volume of 30 μL. For MALDI-MS analysis the samples are applied to the target using the dried-droplet method, where 1 μL of the sample/matrix mixture is spotted on a stainless-steel target, and the solvent is evaporated at room temperature. The residual aqueous phase (˜1 mL) after extraction is also examined by MALDI-MS. Equal amounts (5 μL) of the aqueous phase and the matrix solution (0.16 M α-CHCA in 60:40:0.3% THF:H2O:TFA) are mixed, and 1 μL of the resulting solution is spotted, using the dried droplet method, on a stainless-steel target for MALDI-MS analysis.
Extraction of the myoglobin digest was done in a manner similar to described above. 1 mL aliquots of a 1×10^−6 M protein digest were buffered at pH 7.1 with 50 mM TRIS, mixed with 200 μL of a toluene solution of homopolymer 1 (1×10^−4 M), extracted, and analyzed by MALDI-MS as detailed above.
Proteolytic digestion. For the myoglobin tryptic digests, 110 μl of protein solution (˜3×10^−4 M in 50 mM TRIS buffer) were mixed with 40 μL of MeOH. The mixture was heated at 60° C. for 10 minutes to denature the protein. 150 μL of a trypsin solution, which contained 2 μg/450 μL of protein, 50 mM TRIS buffer, and 1 mM CaCl2, was added to the denatured protein sample, and the mixture was left to digest at 37° C. for 24 hours. The digestion was stopped by filtering the solution through a 10K MWCO Centricon filter. The filtrates were diluted to the desired concentration and used for extraction and analysis.

[3] = pH-dependent biphasic extraction of a peptide mixture with inverse micelles of polymer 1 in toluene, MALDI-MS ion abundance ratio; type: physicochemical; settings: polymer 1 inverse micelles in toluene, K = Iorg/Iaq, [M+H]+ signal, [M+K]+ for spinorphin and β-amyloid, at least 4 replicates; for Ion abundance ratio (K ± sM) pH 4.0: aqueous pH 4.0; for Ion abundance ratio (K ± sM) pH 7.1: aqueous pH 7.1; for Ion abundance ratio (K ± sM) pH 9.0: aqueous pH 9.0
Text: The net charge within the inverse micelle of 1 is negative, affording a selective extraction of positively-charged peptides. In a typical experiment, a toluene solution containing 1 was mixed with an aqueous solution containing a mixture of peptides. After vortexing this mixture, the organic layer was separated and analyzed using MALDI-MS. […] Because the aqueous solution was buffered at a pH of 7.1, peptides with pI values above 7.1 were expected to be sequestered into the interior of the inverse micelles, while peptides with pI values below 7.1 would be mostly excluded based on Coulombic repulsion.
The ion abundance ratio is related to the extraction capacity of the polymer, and can be defined as the ratio of the MALDI ion abundance of the peptide in the organic phase that contains the inverse micelles (Iorg) to the ion abundance of the peptide remaining in the aqueous phase (Iaq) (K=Iorg/Iaq). These experiments were performed with the hypothesis that the extraction would be based on electrostatic interaction between the polymer and the peptide. To test this premise further, two control experiments were carried out. […] Therefore, a two-phase extraction experiment was done in the absence of homopolymer 1, and no peptide extraction into the organic phase was observed. Second, peptide extractions using a polymer without the negatively-charged functionality were performed. Polymer 2 contains charge-neutral pentaethyleneglycol functionalities instead of the carboxylic acid moieties. […] These two results are consistent with the hypothesis that the extraction is based on electrostatics.
Without limitation to any one theory or mode of operation, the pH of the overall aqueous solution is also likely to dictate the pH of the hydrated interiors of the inverse micelle where the binding takes place. Accordingly, extractions at three different pHs: 4.0, 7.1, and 9.0 were carried out; the results of these experiments are listed in Table 1. […] The results from experiments at pH 7.1 and 9.0 further support this idea. It should be noted that when the experiment is carried out at pH 9.0, the peptide with a pI of 7.7 is extracted to some extent. Such a result could be attributed to errors associated with aqueous solution pH measuring or to errors in the peptide pI calculation. Nonetheless, the tunability is still significant and therefore is a very useful result.
A Bruker Reflex III time-of-flight mass spectrometer was used to perform MALDI-MS analysis. The mass spectrometer is equipped with a 337-nm nitrogen laser, a 1.0 m flight tube, and a stainless steel sample target. All mass spectra were acquired in reflectron mode using a voltage of 16 kV. All reported spectra represent an average of 70 shots acquired at 30% laser power. The accelerating voltage was set to 20 kV.
as §1, with “Equal amounts (5 μL) of the aqueous phase and the matrix solution (0.16 M α-CHCA in 60:40:0.3% THF:H2O:TFA) are mixed, and 1 μL of the resulting solution is spotted, using the dried droplet method, on a stainless-steel target for MALDI-MS analysis.” left out

## Nc1ccccc1C(=O)NCCCCCC(=O)O [pI marker 3]
[1]
  pI: 4.0

## O=C(NCCN1CCOCC1)c1cc2ccccc2c(Br)c1O [pI marker 5]
[1]
  Pka1: 5.35
  pI: 6.2
  Pka: 6.95

## O=C(NCCN1CCOCC1)c1cc2ccccc2cc1O [pI marker 6]
[1]
  Pka1: 6.20
  pI: 7.2
  Pka: 8.10

## NCCCN1CCN(CCCNC(=O)c2cc3ccccc3cc2O)CC1 [pI marker 8]
[1]
  Pka1: 8.05
  pI: 9.0
  Pka: 9.85

## NCCCCCCNCCCCCCNC(=O)c1cc2ccccc2cc1O [pI marker 9]
[1]
  Pka1: 9.95
  pI: 10.3
  Pka: 10.65

## ALELFRNDIAAK [tryptic fragment of equine myoglobin]
[2]
  Ion abundance ratio (K ± sM): 0.7 ± 0.1

## ASEDLKKHGTVVLTALGGILK (listed as Equus caballus) [tryptic fragment of equine myoglobin]
[2]
  Ion abundance ratio (K ± sM): 36 ± 4

## GHHEAELKPLAQSHATK (listed as Equus caballus) [tryptic fragment of equine myoglobin]
[2]
  Ion abundance ratio (K ± sM): 425 ± 61

## GLSDGEWQQVLNVWGK (listed as Equus caballus) [tryptic fragment of equine myoglobin]
[2]
  Ion abundance ratio (K ± sM): 0.3 ± 0.1

## HGTVVLTALGGILK (listed as Equus caballus) [tryptic fragment of equine myoglobin]
[2]
  Ion abundance ratio (K ± sM): 32 ± 5

## HGTVVLTALGGILKK (listed as Equus caballus) [tryptic fragment of equine myoglobin]
[2]
  Ion abundance ratio (K ± sM): 51 ± 10

## HPGDFGADAQGAMTK (listed as Equus caballus) [tryptic fragment of equine myoglobin]
[2]
  Ion abundance ratio (K ± sM): 0.05 ± 0.004

## IARRHPYFL (listed as Homo sapiens) [Kinetensin, human peptide purchased from American Peptide Company]
[3]
  Ion abundance ratio (K ± sM) pH 4.0: 337 ± 79
  Ion abundance ratio (K ± sM) pH 7.1: 882 ± 212
  Ion abundance ratio (K ± sM) pH 9.0: 616 ± 198

## KGHHEAELKPLAQSHATK (listed as Equus caballus) [tryptic fragment of equine myoglobin]
[2]
  Ion abundance ratio (K ± sM): 310 ± 0.2

## KHGTVVLTALGGILK (listed as Equus caballus) [tryptic fragment of equine myoglobin]
[2]
  Ion abundance ratio (K ± sM): 51 ± 10

## KKGHHEAELKPLAQSHATK (listed as Equus caballus) [tryptic fragment of equine myoglobin]
[2]
  Ion abundance ratio (K ± sM): 140 ± 12

## LFTGHPETLEK (listed as Equus caballus) [tryptic fragment of equine myoglobin]
[2]
  Ion abundance ratio (K ± sM): 0.02 ± 0.02

## LFTGHPETLEKFDKFK (listed as Equus caballus) [tryptic fragment of equine myoglobin]
[2]
  Ion abundance ratio (K ± sM): 41 ± 6

## NDIAAKYKELGFQG (NDLAAKYKELGFQG; listed as Equus caballus) [tryptic fragment of equine myoglobin]
[2]
  Ion abundance ratio (K ± sM): 1.4 ± 0.4
[2]; listed as N140-G153
  Ion abundance ratio (K ± sM): 1.4

## S YSMEHFRWGKPV [ACTH Human]
[3]
  Ion abundance ratio (K ± sM) pH 4.0: 221 ± 37
  Ion abundance ratio (K ± sM) pH 7.1: 422 ± 87
  Ion abundance ratio (K ± sM) pH 9.0: 128 ± 41

## VEADIAGHGQEVLIR (listed as Equus caballus) [tryptic fragment of equine myoglobin]
[2]
  Ion abundance ratio (K ± sM): 0.3 ± 0.04

## YKELGFQG (listed as Equus caballus) [tryptic fragment of equine myoglobin]
[2]
  Ion abundance ratio (K ± sM): 0.01 ± 0.001

## YLEFISDAIIHVLHSK (listed as Equus caballus) [tryptic fragment of equine myoglobin]
[2]
  Ion abundance ratio (K ± sM): 0.0
